This note sets out measurements from patent US20250136687A1 (SHANDONG SIMCERE BIOPHARMACEUTICAL, published 2025).

Assay [1] has as its target T1, cynomolgus monkey CD3 on the surface of expanded monkey T cells (cynomolgus monkey, UniProt Q95LI5 22-198; Q95LI8 22-171; Q95LI7 23-181).
T1 construct: whole, on cells; Endogenous CD3 within the TCR-CD3 complex on T cells expanded from cynomolgus monkey PBMC
The assay is described as follows: FACS, monkey T cells, hybridoma screening. Here is the method: (§1) Suspension cells Jurkat cells (purchased from Cell bank of Chinese Academy of Sciences) were scale-up cultured in T-175 cell culture flasks to the logarithmic growth phase, the supernatant of the medium was discarded by centrifugation, and the cell pellet was washed 2 times with PBS. After counting the cells in the previous step, the cell pellet was resuspended with [PBS+2% (w/v) FBS] blocking solution to 4×10⁶ cells/ml, and added to a 96-well FACS reaction plate at 50 μl/well, the supernatant was removed by centrifugation, detection antibodies (initial concentration of […], gradient dilution at 1:5) and an IgG negative control were added at 100 μl/well, the cells were uniformly mixed, and incubated on ice for 1 h. The cells were centrifuged and washed 3 times with a PBS buffer. […] The cells were centrifuged and washed 5 times with a PBS buffer, and FACS (FACS Canto II, purchased from BD Company) was used for detection and result analysis. Data analysis was performed by software (CellQuest) to obtain the mean fluorescence intensity (MFI) of the cells. And then software (GraphPad Prism8) was used for analysis, data fitting, and EC50 value calculation.
(§2) The binding of the supernatant of the hybridoma to human CD3ε/δ-His (purchased from Sino Biological, Inc. (China), catalog number: CT038-H2508H) and monkey CD3ε/δ-His (purchased from Acrobiosystems, CDD-C52W4) was detected by ELISA for the screening of the supernatant of the hybridoma (see Example 10.1 below). The binding of the supernatant of the ELISA positive hybridoma clone to Jurkat cells and monkey T cells was detected by flow cytometry, and the activation of Jurkat-Lucia NFAT cells (purchased from InvivoGen, catalog number: jktl-nfat) by the supernatant of the hybridoma was detected by a reporter gene system (see Example 2.1, Example 2.4 and Example 7.1 below for the method).
A general note: A flow cytometer gives signals particle by particle.

Assay [2] concerns the target T2, human CD3 on the cell surface (Jurkat cells, expanded human T cells, Jurkat-Lucia NFAT cells, human PBMC) (human, UniProt P07766 23-207; P04234 22-171; P09693 23-182). The assay is described as follows: cell-based or functional assay.
The target of assay [3] is T2, human CD3 on the cell surface (Jurkat …). The assay is described as follows: FACS, Jurkat cells, hybridoma screening. The procedure: as §1, §2
For a further assay, the target named is T3, monkey CD3ε/δ-His (monkey, UniProt Q95LI5 22-117; Q95LI8 22-105).
T3 construct: Bought recombinant heterodimer with His tag
Description: ELISA, coated antigen, hybridoma screening.
From the text: as §2
(§3) To detect the binding activity of the humanized antibodies to CD3 protein, CD3 protein was diluted with PBS to the final concentration of […], then added to a 96-well ELISA plate at 50 μL/well, and the plate was sealed with a plastic film, and incubated overnight at 4° C. On the next day, the plate was washed 2 times with PBS, and a blocking solution [PBS+2% (v/v) BSA] was added for blocking at room temperature for 2 h. The blocking solution was poured off, and the antibody (initial concentration of 100 nM, and gradient dilution at 1:10) or a negative control antibody was added at 50 µl/well. After incubation at 37° C. for 2 h, the plate was washed 3 times with PBS. […] TMB substrate was added at 50 μl/well, and incubated at room temperature for 10 min, and then a stop solution (1.0 N HCl) was added at 50 μl/well. The OD450 nm values were read by an ELISA microplate reader (Multimode Plate Reader, EnSight, purchased from Perkin Elmer).

In a further assay the target is T4, human CD3ε/δ-His (human, UniProt P07766 23-126; P04234 22-105).
T4 construct: Bought recombinant heterodimer with His tag; also called human CD3ε/δ protein
The assay is described as follows: ELISA, coated antigen, hybridoma screening.
From the text: as §2, §3
A general note: ELISA stands for enzyme-linked immunosorbent assay.

In assay [4] the target is T1, cynomolgus monkey CD3 on the surface of …. Description: FACS, expanded monkey T cells. Here is the method: (§4) The binding of the chimeric antibodies to CD3 on the cell surface was analyzed by detecting the binding of the antibodies to Jurkat cells and human T cells. Suspension cells Jurkat cells were scale-up cultured in T-75 cell culture flasks to the logarithmic growth phase, the supernatant of the medium was discarded by centrifugation, and the cell pellet was washed 2 times with PBS for later use. The expanded human T cells were washed 2 times with PBS for later use. After counting the cells in the previous step, the cell pellet was resuspended with [PBS+2% (w/w) BSA] blocking solution to 4×10⁶ cells/ml, and added to a 96-well FACS reaction plate at 50 μl/well, and then the chimeric antibody to be tested was added at 50 μl/well, and incubated at 4° C. for 1 h. The cells were centrifuged and washed 3 times with a PBS buffer. […] The cells were centrifuged and washed 5 times with PBS, and FACS (FACS Canto™, purchased from BD Company) was used for detection and result analysis. Data analysis was performed by software (CellQuest) to obtain the mean fluorescence […] (MFI) of the cells. And then software (GraphPad Prism8) was used for analysis, data fitting, and EC50 value calculation. The same method was used to simultaneously detect the binding of the chimeric antibodies to endogenous CD3 negative cells MOLT4 cells.
FACS detection and data analysis were performed on the cryopreserved monkey T cells of Example 2.4 according to the method in Example 5.1.

Assay [5] addresses T2, human CD3 on the cell surface (Jurkat …). Description: FACS, expanded human T cells. Here is the method:
as §4

Assay [6] shares this target. Description: FACS, Jurkat cells. Here is the method: as §4
Assay [7] has the same target. The assay is described as follows: cell-based or functional assay. The source holds these as a separate data set.
Assay [8] has as its target T5, recombinant human CD3ε-ECD His protein (human, UniProt P07766 23-126).
T5 construct: extracellular domain; also called human CD3ε-His; CD3ε antigen protein; not shown: His tag
The assay is described as follows: SPR (Biacore), antibody captured on Protein A chip. Here is the method: Sample buffer and running buffer were HBS-EP+(10 mM HEPES, 150 mM NaCl, 3 mM EDTA, 0.05% surfactant P20) (GE Healthcare; BR-1006-69). The flow-through cell was set to 25° C. The sample block was set to 16° C. Both were pretreated with the running buffer. In each cycle, the antibody to be detected was first captured with a Protein A chip, and then a single concentration of CD3ε antigen protein (purchased from Sino Biological, Inc. (China), catalog number: 10977-H08H) was injected. The binding and dissociation processes of the antibody and the antigen protein were recorded, and finally a glycine solution (pH 1.5, GE Healthcare; BR-1003-54) was used to complete chip regeneration. The binding was measured by injecting different concentrations of recombinant human CD3ε-ECD His proteins in a solution for 240 s with a flow rate of 30 μL/min. The concentration started from 200 nM (see the detailed results for the actual concentration in the test) and was diluted at 1:1, making a total of 5 concentrations. The dissociation phase was monitored for up to 600 s and was triggered by switching from sample solution to running buffer. The surface was regenerated by washing with a 10 mM glycine solution (pH 1.5) for 30 s at a flow rate of 30 μL/min. Bulk refractive index difference was corrected by subtracting the response obtained from the goat anti-human Fc surface. Blank injection was also subtracted (=double reference). For calculation of apparent KD and other kinetic parameters, Langmuir 1:1 model was used.
(In SPR one partner is held on a chip, and binding of the other changes the refractive index at the surface.)

T4 sequence (P07766 23-126, stated change not applied, form in doubt, chain 1 of 2): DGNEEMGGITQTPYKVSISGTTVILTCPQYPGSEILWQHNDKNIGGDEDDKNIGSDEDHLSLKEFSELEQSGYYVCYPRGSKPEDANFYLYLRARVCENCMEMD
T4 sequence (P04234 22-105, stated change not applied, form in doubt, chain 2 of 2): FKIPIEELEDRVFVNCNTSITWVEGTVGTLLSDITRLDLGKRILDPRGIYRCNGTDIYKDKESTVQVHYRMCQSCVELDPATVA
T5 sequence (P07766 23-126): as the sequence (P07766 23-126, stated change not applied, form in doubt, chain 1 of 2) above
T2 sequence (P07766 23-207, chain 1 of 3): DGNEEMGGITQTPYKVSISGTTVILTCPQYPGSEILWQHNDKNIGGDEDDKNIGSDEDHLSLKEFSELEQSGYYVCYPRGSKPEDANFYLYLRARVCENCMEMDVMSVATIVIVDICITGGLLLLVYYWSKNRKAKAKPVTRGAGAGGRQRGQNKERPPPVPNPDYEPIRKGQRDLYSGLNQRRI
T2 sequence (P04234 22-171, chain 2 of 3): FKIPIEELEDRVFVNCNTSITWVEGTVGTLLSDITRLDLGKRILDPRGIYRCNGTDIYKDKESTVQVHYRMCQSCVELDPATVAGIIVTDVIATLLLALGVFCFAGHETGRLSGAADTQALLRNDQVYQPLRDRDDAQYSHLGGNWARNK
T2 sequence (P09693 23-182, chain 3 of 3): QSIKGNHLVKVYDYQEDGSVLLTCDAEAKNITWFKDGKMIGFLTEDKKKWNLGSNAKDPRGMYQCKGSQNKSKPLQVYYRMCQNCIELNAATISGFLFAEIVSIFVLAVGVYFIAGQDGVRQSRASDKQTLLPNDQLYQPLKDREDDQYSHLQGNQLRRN
T3 sequence (Q95LI5 22-117, stated change not applied, form in doubt, chain 1 of 2): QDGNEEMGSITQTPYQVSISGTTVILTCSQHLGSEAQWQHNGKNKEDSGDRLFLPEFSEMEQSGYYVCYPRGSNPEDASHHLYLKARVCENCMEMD
T3 sequence (Q95LI8 22-105, stated change not applied, form in doubt, chain 2 of 2): as the sequence (P04234 22-105, stated change not applied, form in doubt, chain 2 of 2) above, with I5V, N15K, I20V, S32T, D33N, I34N, T64A, S74N, V83L counted along it

B1: 7-35.6 murine hybridoma antibody (supernatant) (antibody, V domains shown)
VH: EVQLVESGGGLVQPKGSLKLSCAASGFTFNTYAMNWVRQAPGKGLEWVGRIRSKINNYATYYGDSVKDRFTISRDDSQSMFYLQMNNLKTEDTAMYYCVIHENYGSISWFAYWGQGTLVTVSA
VL: QAVVTQESTLTTSPGETVTLTCRSSTGAVTTSNYANWVQEKPDHLFTGLIGGTNNRAPGVPARFSGSLIGDKAALTITGAQTEDEAIYFCALWYSNHWVFGGGTKLTVL
notes: Tested as hybridoma supernatant
With B1, the figures for the Mean fluorescence intensity in assay [1] and in [3] were 1650 MFI and 284 MFI, respectively. In addition, in assay [2], the “Reporter assay (RLU), Jurkat-Lucia NFAT, supernatant diluted by 4 times” value (from here on “Reporter assay (RLU) … by 4 times”) is 27400 RLU. In assay [2], the “Reporter assay (RLU), Jurkat-Lucia NFAT, supernatant diluted by 20 times” value (from here on “Reporter assay (RLU) … by 20 times”) is 14800 RLU. In addition, the OD450 is 1.46 OD450 in the assay with monkey CD3ε/δ-His and 1.56 OD450 with human CD3ε/δ-His.

B2: 8-18.1 murine hybridoma antibody (supernatant) (antibody, V domains shown)
VH: QVQLQQSGAELARPGASVKMSCKASGYIFTMNTMHWVKQRPGQGLEWIGYINPYSGYTKYNQIFKDKATLTADKSSSTAYMRLSSLTSEDSAVYYCLRGGEGVWGQGTTLTVSS
VL: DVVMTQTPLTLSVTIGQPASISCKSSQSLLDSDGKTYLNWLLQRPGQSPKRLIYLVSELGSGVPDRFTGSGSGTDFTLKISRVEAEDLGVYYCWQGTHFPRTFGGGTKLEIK
notes: as for B1
For the molecule B2, the figures for the Mean fluorescence intensity in [1] and in assay [3] were 3100 MFI and 895 MFI, respectively. For the same molecule, the “Reporter assay (RLU) … by 4 times” value in assay [2] was 27000 RLU. Besides, the “Reporter assay (RLU) … by 20 times” value in assay [2] was determined as 17800 RLU. Moreover, the OD450 with monkey CD3ε/δ-His worked out at 2.14 OD450; in the assay with human CD3ε/δ-His it was 2.04 OD450.

B3: 5-7.13 murine hybridoma antibody (supernatant) (antibody, V domains shown)
VH: QVQLQQPGTELVKPGASVKLSCKASGYTFTSYWVHWVKQRPGQGLEWIGNINPSDGVTNYNEKFKSRATLTVDKSSSTAYMQLSSLTSEDSAVYYCTRDAYGQYYFDDWGQGTTLTVSS
VL: DIVMSQSPSSLVVSAGEKVTMSCKSSQSLLNSRTRKNYLAWYQQKPGQSPKLLIYWASVRDSGVPDRFTGSGSGTDFTLTISNVQAEDLAVYYCIQSYYLRTFGGGTILEIK
notes: as for B1
Turning to B3, the Mean fluorescence intensity in [1] was 16300 MFI; in assay [3], 8280 MFI. Besides, the “Reporter assay (RLU) … by 4 times” value in [2] is 24500 RLU. Also, the “Reporter assay (RLU) … by 20 times” value in assay [2] was 27800 RLU. For the same molecule, the values for the OD450 in the assay with monkey CD3ε/δ-His and with human CD3ε/δ-His were 2.09 OD450 and 2.08 OD450, respectively.

B4: 1-22.6 human-murine chimeric antibody (antibody, human IgG1, kappa, V domains shown)
VH: QIPLVQSGPELKKPGETVKISCKTSGYTFTSYGMSWVKQAPGKGLKWMGWINTYSGVPTYADDFKGRFVFSLDTSASTAFLQINNLKNEDTATYFCARLKNNPFCWGQGSTLTVFS
VL: DVLMTQSPLSLPVRLGDQASISCRSSQLILHSNGNTYLEWYLQKPGQSPKLLIYKVSNRFSGVPDRFSGSGSGTDFTLKISRVEAEDLGVYYCFQGSHFPWTFGGGTKLEIKR
For orientation: EC50 means the concentration giving half of the maximal effect. The Kd is the concentration at which binding is half-saturated. Broadly, the koff is the rate constant with which the complex falls apart. Usually kon stands for a measure of how fast the partners come together. In [4], B4 had an EC50 of 5.51 nM and an MFI_Max of 43600 MFI. In [5], this molecule came in with an EC50 of 18.1 nM and an MFI_Max of 15100 MFI. In assay [6], the midpoint of the response, the EC50, lay at 4.28 nM and the MFI_Max is 2080 MFI. Moreover, in assay [7], the “EC50 (nM), luciferase reporter, Jurkat-Lucia NFAT cells” value came out at 11.6 nM and the “Maximum response value (RLU)” value amounted to 31700 RLU. Also, in assay [8], the Kd is 5.51 nM, the koff amounted to 0.000699 s⁻¹ and the kon amounted to 127000 M⁻¹ s⁻¹.
